Legend:
LCLC-103H cells = assay: In vitro cytotoxicity (CellTiter-Glo, 5 days); type: cell-based, human; settings: MMAE-conjugated antibodies
MDA-MB-231 cells = assay: In vitro cytotoxicity (CellTiter-Glo, 5 days); type: cell-based, human; settings: MMAE-conjugated antibodies
[1] = system: LCLC-103H xenograft tumors; assay: LCLC-103H xenograft model; type: in vivo, SCID mice
Method: 5 × 10^6 LCLC-103H (large cell lung carcinoma) tumor cells (obtained from Leibniz-Institut DSMZ-Deutsche Sammlung von Mikroorganismen und Zellkulturen GmbH (DSMZ)) in 200 µL PBS were injected subcutaneously in the right flank of female SCID mice. Starting 14-21 days after tumor cell inoculation, when the average tumor size was >100-200 mm^3 and distinct tumor growth was observed, a single injection with 1 mg/kg (20 µg/mouse) IgG1-AXL-vcMMAE antibodies (as described in Supplementary Example 1) or control (unconjugated IgG1-b12) was given intraperitoneally (100 µL/mouse). Tumor volume was determined at least two times per week. Tumor volumes (mm^3) were calculated from caliper (PLEXX) measurements as: 0.52 × (length) × (width)^2.
(§1) Tumor induction was performed by subcutaneous injection of 5 × 10^6 A431 or LCLC-103H tumor cells (both obtained from Leibniz-Institut - Deutsche Sammlung von Mikroorganismen und Zellkulturen GmbH (DSMZ)) in 200 µL PBS in the right flank of female SCID mice. Treatment was started 14-21 days after tumor cell inoculation, when the average tumor size was >100-200 mm^3 and distinct tumor growth was observed. Mice received a single injection or a total of 4 biweekly intraperitoneal injections with IgG1-AXL-vcMMAE ADCs or control antibody (unconjugated IgG1-b12), as indicated. Tumor volume was determined at least two times per week. Tumor volumes (mm^3) were calculated from caliper (PLEXX) measurements as: 0.52 × (length) × (width)^2.

PAXF1657 tumors = assay: PAXF1657 pancreas cancer PDX model; type: in vivo, NMRI nu/nu mice
A431 tumors = assay: A431 xenograft model (high Gas6); type: in vivo, SCID mice; settings: 3 mg/kg
Method: as §1

A431 cells = settings: MMAE-conjugated antibodies, 5 days

B1: IgG1-AXL-148-vcMMAE (conjugate)
VH: EVQLLESGGGLVQPGGSLRLSCAASGFTFSSYAMTWVRQAPGKGLEWVSAISISGGSTFYADSVKGRFTISRDNSKNTLYLQMNSLRAEDTAVYYCRGYSGYVYDAFDFWGQGTMVTVSS
VL: DIQMTQSPSSLSASVGDRVTITCRASQGISNWLAWYQQKPEKAPKSLIYAASSLQSGVPSRFSGSGSGTDFTLTISSLQPEDFATYYCQQYNSYPLTFGGGTKVEIK
LCLC-103H cells
  Cytotoxicity in LCLC-103H cells EC50: 0.012 µg/mL
MDA-MB-231 cells
  Cytotoxicity EC50 (µg/mL) MDA-MB231 (n=2) Mean: 0.012 µg/mL
[1]; 3 mg/kg (Example 13, FIG. 14A)
  anti-tumor activity in the LCLC-103H xenograft model: tumor regression
[1]; single injection 1 mg/kg intraperitoneally (Example 9)
  anti-tumor activity in established SC LCLC-103H tumors: tumor regression
PAXF1657 tumors; 2 mg/kg i.v., day 0
  growth of PAXF1657 tumors compared to the control group: significantly reduced the growth
PAXF1657 tumors; 4 mg/kg i.v., day 0
  growth of PAXF1657 tumors: induced tumor regression
PAXF1657 tumors; mouse, in vivo
  anti-tumor activity in the PAXF1657 model (FIG. 10B, 10C): dose-dependent antitumor activity
A431 tumors
  anti-tumor activity in the A431 xenograft model: growth inhibition
A431 cells
  Cytotoxicity EC50 (µg/mL) A431 (n=3) Mean: 0.070 µg/mL

From patent US20230321261A1, “AXL-SPECIFIC ANTIBODY-DRUG CONJUGATES FOR CANCER TREATMENT” (GENMAB A/S, priority 2016, published 2023)
